This is an account of results in paper doi:10.1101/2020.05.28.119206.

This assay has as its target recombinant medaka ZI-3 precursor (Y74-V420) (medaka). Kind of assay: SEC-MALS.

What is called stoichiometry N is a count of units in the complex or per binding partner. Take “recombinant medaka ZI-3 precursor (Y74-V420) (domain or fragment)”: the stoichiometry N is 2.
